Measured values reported in patent US20050136043A1, “TGFbeta signaling inhibitors” (Ludwig Institute for Cancer Research, priority 2003, published 2005).

What was measured:
Mv1Lu cells = assay: Growth inhibition assay, [3H]thymidine incorporation; assay type: cell-based; conditions: peptide 50 μM, TGFβ1 0.1 ng/ml, 24 hours; for Reversion of the inhibitory action of TGFβ1 on DNA synthesis: FIG. 7
Description: Growth inhibition assay: Growth inhibition assay with MV1Lu cells, using evaluation of [^3H]thymidine incorporation, was performed as described earlier. Briefly, cells were preincubated with peptides for 30 min, and then treated or not with TGFβ1 (0.1 ng/ml) for 24 h. During the last two hours of incubation, [^3H]thymidine was added. Radioactivity incorporated into DNA was measured in a scintillation counter. No cytotoxic effects of peptides were observed after 24 h incubation with cells, as evaluated by observation of cells in a microscope.
To explore whether the antp-Sm2A (SEQ ID NO:2) peptide can interfere with the TGFβ-dependent effects on cells, we performed an assay with Mv1Lu cells, which are widely used in studies of TGFβ effects and are potently growth-inhibited by TGFβ [29]. […] [^3H]thymidine was added to cells for last two hours of incubation, and radioactivity incorporated into DNA was measured.

BMPR-II = molecular target: T1, BMPR-II (Homo sapiens, UniProt Q13873); assay: In vitro kinase assay (autophosphorylation) of receptor expressed in COS-7 cells; assay type: biochemical; conditions: 10 μM peptide, FIG. 5
T1 construct: made in house; host or cells: COS-7 cells (transfected, Ni-NTA precipitated)
T1 sequence (Q13873 27-1038): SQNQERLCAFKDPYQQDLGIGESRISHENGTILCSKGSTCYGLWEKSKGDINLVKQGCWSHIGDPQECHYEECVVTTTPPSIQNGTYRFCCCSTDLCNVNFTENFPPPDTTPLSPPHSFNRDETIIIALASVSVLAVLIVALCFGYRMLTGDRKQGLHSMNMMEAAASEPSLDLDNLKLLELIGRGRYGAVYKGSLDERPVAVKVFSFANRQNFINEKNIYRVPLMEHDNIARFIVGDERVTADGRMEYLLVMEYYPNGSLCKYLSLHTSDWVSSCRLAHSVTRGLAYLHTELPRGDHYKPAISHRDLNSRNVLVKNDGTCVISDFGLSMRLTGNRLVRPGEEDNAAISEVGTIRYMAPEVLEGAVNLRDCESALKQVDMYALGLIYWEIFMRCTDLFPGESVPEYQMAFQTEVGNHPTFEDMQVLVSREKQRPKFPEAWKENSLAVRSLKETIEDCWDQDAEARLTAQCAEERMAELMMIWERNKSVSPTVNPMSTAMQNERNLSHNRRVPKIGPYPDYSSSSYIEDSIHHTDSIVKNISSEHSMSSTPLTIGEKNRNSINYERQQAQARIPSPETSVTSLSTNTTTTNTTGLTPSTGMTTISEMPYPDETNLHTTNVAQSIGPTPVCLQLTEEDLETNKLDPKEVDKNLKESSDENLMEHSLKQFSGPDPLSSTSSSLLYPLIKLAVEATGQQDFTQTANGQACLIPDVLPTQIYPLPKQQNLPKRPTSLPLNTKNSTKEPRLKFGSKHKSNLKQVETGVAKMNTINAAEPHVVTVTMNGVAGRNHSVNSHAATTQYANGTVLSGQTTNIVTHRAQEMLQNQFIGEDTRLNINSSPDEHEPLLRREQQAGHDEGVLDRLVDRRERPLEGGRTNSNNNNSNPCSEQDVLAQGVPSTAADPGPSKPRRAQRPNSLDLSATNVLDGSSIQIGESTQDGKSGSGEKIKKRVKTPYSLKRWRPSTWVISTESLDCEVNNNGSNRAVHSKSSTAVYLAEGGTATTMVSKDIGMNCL
Description: (§1) For in vitro kinase assay of type I and type II TGFβ family receptors, p38α and SAPKα2 kinases, COS-7 cells were transfected with the kinase expression vectors or the control empty pcDNA3 vector using the DEAE-dextran method. Proteins were extracted in a lysis buffer (50 mM Tris-HCl, pH 7.5, 50 mM NaCl, 1% NP-40, 10 μg/mL aprotinin, 0.1 mM PMSF). HA-tagged proteins (ALK1 to ALK7, p38R, SAPKR2) were immunoprecipitated with anti-HA antibody (12CA5; Roche); His6-tagged proteins (type II receptors) were precipitated with Ni-NTA agarose (Qiagen). The precipitates were washed in extraction buffer, with 20 mM imidazole for Ni-NTA agarose-precipitated proteins, and two times with kinase buffer (20 mM HEPES, pH 7.4, 10 mM MgCl2, 2 mM MnCl2, 1 mM DTT). The kinase reaction was initiated by addition of 20 μL of kinase buffer containing 0.5 μCi of [γ-32P]ATP, 5.0 μM ATP, and inhibitory peptides at a final concentration of 10 μM. The reaction was performed at 22° C. for 20 min and terminated by addition of SDS-containing sample buffer and boiling for 5 min. The reaction products were analyzed by SDS-PAGE and exposure in a Fuji X2000 phosphorimager. Equal loading was controlled by immunoblotting aliquots of the samples with a HA probe (Y-11; Santa Cruz) or anti-His antibody (Qiagen).
(§2) To evaluate whether the substrate-mimicking peptides affect kinases of type I and type II reptors of the TGFβ family, we studied the influence of peptides on authophosphorylation of all known mammalian type I receptors [ALK-1, ActR-I (ALK-2), BMPR-IA (ALK-3), ActR-IB (ALK-4), TβR-I (ALK-5), BMPR-IB (ALK-6), and ALK-7], TβRII, ActR-II, BMPR-II, p38R, and SAPKR2 (FIG. 5). The kinases were expressed in COS-7 cells and purified by using specific anti-tag antibodies or Ni-NTA agarose, and kinase activity was tested in the presence of peptides.

ALK-1 = molecular target: T2, ALK-1 (Homo sapiens, UniProt P37023); assay: as above; assay type: biochemical; conditions: 10 μM peptide, FIG. 5
T2 construct: made in house; host or cells: COS-7 cells (transfected, immunoprecipitated)
Description: as §1, §2

ActR-I (ALK-2) = molecular target: T3, ActR-I (ALK-2) (Homo sapiens, UniProt Q04771); assay: as above; assay type: biochemical; conditions: 10 μM peptide, FIG. 5
T3 sequence (Q04771 21-509): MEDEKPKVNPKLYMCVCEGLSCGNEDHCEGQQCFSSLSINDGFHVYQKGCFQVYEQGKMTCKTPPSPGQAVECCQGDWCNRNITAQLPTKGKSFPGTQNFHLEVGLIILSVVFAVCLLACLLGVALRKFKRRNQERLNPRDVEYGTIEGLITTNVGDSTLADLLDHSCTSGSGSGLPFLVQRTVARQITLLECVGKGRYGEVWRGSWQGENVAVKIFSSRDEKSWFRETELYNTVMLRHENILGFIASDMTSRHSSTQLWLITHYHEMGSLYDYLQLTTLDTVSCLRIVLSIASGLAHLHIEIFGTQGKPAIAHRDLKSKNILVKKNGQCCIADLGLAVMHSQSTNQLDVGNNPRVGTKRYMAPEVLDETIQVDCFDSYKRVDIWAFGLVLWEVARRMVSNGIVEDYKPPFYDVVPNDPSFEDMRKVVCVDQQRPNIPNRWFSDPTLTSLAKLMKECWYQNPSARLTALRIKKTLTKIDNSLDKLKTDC
Description: as §1, §2

T2 sequence (P37023 22-503, species assumed): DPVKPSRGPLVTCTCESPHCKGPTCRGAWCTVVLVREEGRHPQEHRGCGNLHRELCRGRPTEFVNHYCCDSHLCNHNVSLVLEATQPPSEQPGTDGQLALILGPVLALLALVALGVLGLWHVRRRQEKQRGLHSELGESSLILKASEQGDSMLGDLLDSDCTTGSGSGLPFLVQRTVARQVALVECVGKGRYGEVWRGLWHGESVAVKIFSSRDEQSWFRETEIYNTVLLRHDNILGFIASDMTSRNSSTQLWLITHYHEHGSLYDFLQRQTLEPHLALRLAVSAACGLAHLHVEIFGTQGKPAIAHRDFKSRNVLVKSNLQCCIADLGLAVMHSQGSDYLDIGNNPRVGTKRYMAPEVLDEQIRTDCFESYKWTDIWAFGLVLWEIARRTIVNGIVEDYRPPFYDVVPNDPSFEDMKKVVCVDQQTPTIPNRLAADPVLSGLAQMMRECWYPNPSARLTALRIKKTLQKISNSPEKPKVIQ

RQIKIWFQNRRMKWKKTQMGSPSVRCSSMS (listed as Homo sapiens) [antp-Sm2S, penetratin fused to the C-terminus of wild-type Smad2]
Reversion of the inhibitory action of TGFβ1 on DNA synthesis (Mv1Lu cells): reverted to a significant extent
Effect on BMPR-II kinase (BMPR-II): without any effect
Effect on ALK-1 kinase (ALK-1): without any effect
Effect on ActR-I (ALK-2) kinase (ActR-I (ALK-2)): without any effect

RQIKIWFQNRRMKWKKTQMGSPSVRCSAMA (listed as Homo sapiens) [antp-Sm2A]
Inhibition of [3H]thymidine incorporation in response to TGFβ1 (Mv1Lu cells): 26%
Reversion of the inhibitory action of TGFβ1 on DNA synthesis (Mv1Lu cells): reverted to a significant extent
Effect on BMPR-II kinase (BMPR-II): without any effect
Effect on ALK-1 kinase (ALK-1): without any effect
Effect on ActR-I (ALK-2) kinase (ActR-I (ALK-2)): without any effect
